Experimental data: article PMC1308866, “Inhibition of HIV derived lentiviral production by TAR RNA binding domain of TAT protein”

Tests used:
Assay in all cases: EMSA; 0.25 nmol RNA in 10 ul; peptide:RNA molar ratio 0-1
Conditions in all cases: hairpin
[1] = biological target: T1, Con-P1
T1 chain: RRQRRTSKLMKR

[2] = biological target: T2, Con-P2
T2 chain: ARPLEHGSDKAT

[3] = biological target: T3, Tat-P (HIV, UniProt P69698)
T3 chain: YGRKKRRQRRR

GCCAGAUCUGAGCCUGGGAGCUCUCUGGC (structured_RNA) [TAR RNA 29mer]
binding result [1]: no binding | binding result [2]: no binding | binding result [3]: binds
